In the domain aggregation screens of Martell et al. (2025):

Assay: soluble fraction after stress (log2 fold change); higher = more stays soluble; pooled small domains, quantitative proteomics
Details: stress: 50 degC
In short: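 The measure of aggregation propensity here is the base-two logarithm of the fold change in the soluble amount of each protein after stress. A higher value means more of that protein stays in solution. Stress was applied at 50°C to pooled libraries of small protein domains, read out by high-throughput quantitative proteomics.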

Going from “HMINVVDEVIKHLETNIISGFWAPGQKIDSEATLSKQLNVSRASIHTAIQQLIATGVLESFQGKGTFVRS” to “HMIPDGKWKEDPISDGQKNFINSLIEQAIDAGQDELGAEAKKYLASGEATKGNASAMIDKLKSAL”, the “soluble fraction (log2)” value rises from -0.624 to 0.392.

First: HMIPDMSLELAMSEQTSKGDLYGDLPNDKLALMFNAISKKVPHTDDHKRKMVAIQTILESRAS
Second: HMIPEGKWMEDPISEGQIKFIETLIKQAIDSGQDALGAEAKQYLSSGEATKGNASSMIDKLKDAL
The “soluble fraction (log2)” value of the first is lower: -0.251 for the first, 0.243 for the second.

Compared with “HMIPEILNGYTKWGDDEPFEDHAGPFYMKMMPSTGRHLSAFIPEQRHMNGGGFLHGGMLMSFADYALFVI”, “HMIPEKEISYMMPDGFMPKELKIIHITESGRKQIYSAAHKPLDLVNVKAPFVPNTKVQIYINDVPIEELKI” is lower in “soluble fraction (log2)” value: 0.00747 for the first, -0.418 for the second.

Compared with “HMIPKDKQAWIALTYIYGVGRTTSMEILKKAQVGEEIRMKDLTEEEVTRIRNIIDKEYEVEGDLRRN”, “HMIPNEKEAARWDALTAEHTAKLNALEGDALDKVGSHEDVSIKRAGVGDAAFREKILSRTHPDDLERALST” is higher in “soluble fraction (log2)” value: -0.292 for the first, 0.0829 for the second.

First: HMIQHFARKRRQLELAVQRLSGRMAETNGQVTADMQRLIQQVKALVAELSHVFSRAYLRRVLGGVALVIGS
Second: HMIQLTDAEFNELVTYIKKNYGINLIKKRLLIEARMYSVLAKHGFTSFTEYINLIKRDPAELNTMLNKLTT
The “soluble fraction (log2)” value of the first is higher: -0.104 for the first, -1.72 for the second.

“HMIQMRVKVPKNIAGGSLMGAHHFVKSALARTNPGGSTSNYKIQATDGTPLTLGDLTARQYDEVLIISG” and “HMIQTKKVTFTVEPTVNFEKINISGIEFKINSGSSITAIYEKNSHNFDEVLDFLKQKGVKILDIVTED” are within 0.2 log units of each other in “soluble fraction (log2)” value: 0.0101 for the first, -0.118 for the second.

Going from “HMIRILIVDDSAFMRKLLSDVFEEDKNFVVVDTARNGQDAVEKVKRLKPDLVTMDVEMPVMDGLTAVEIIM” to “HMIRSNLAEQAYAQLKALIHDFQLLPGDRFSENEMGTRLGVSRTPVREALFRLRNEGFLEVESKAGWYVK”, the “soluble fraction (log2)” value falls from -0.36 to -2.38.

“HMISAADLQTYLKGMDYPAGREDLVAHAQRNNAPESVITILQGFSDRTYRSAAEVSEEFGRE” and “HMISADSSKVDTLVQVYSNMKPIQAAQVFEKMDEDLVIEILSRMKKKNAADILNLIKTEKAQVFAEKYA” are within 0.2 log units of each other in “soluble fraction (log2)” value: 0.194 for the first, 0.0124 for the second.

First: HMISAEPVGEDLFKVAFPFLGGSTVFEKTIEQFIEEHPSKRIDHIYTVPNPLRLKKADALIFYIITEEK
Second: HMISASDLQTYLKGMDYPARKEDLIVHAQRNNAPESVIAAIRQFSDRTYQSAADVSEEFGKI
The “soluble fraction (log2)” value of the first is lower: -1.02 for the first, 0.19 for the second.

“HMISDEELLVSTKKEIMSLATVLTKTDKKDDAIAIMKEYDPAANPNRIKDVNKAKELLERLQKLG” and “HMISDISEIEAIIVEVLKVFPNQLQEYLDGKEKILSFFVGQVMQRTKGRANPSLVNEILKEKIKN” are within 0.2 log units of each other in “soluble fraction (log2)” value: -0.125 for the first, 0.0377 for the second.

“HMISEAEGTILQLLKEADGTLPFTYKSDADEIKKVFGMSKKNFKRTLTELIEAKKIQLLDDAIVL” and “HMISEKEIKIIEDILARWNGKLTWDDFTSKVAKKLNLPSLSKFTLMGYPEIKQAFLTRKQTLK” are within 0.2 log units of each other in “soluble fraction (log2)” value: -0.459 for the first, -0.328 for the second.

“HMISENFVEAKILLTEDNRPKSLEILKDIIRQHDKVYSPLSLFLILDEDLEENKEIILEYFDLVLS” and “HMISESLLDEIPGLGETRRNSLLREFGSVAMIRKASAEEIASRVRGIGAEFAAAIHDFLQTH” are within 0.2 log units of each other in “soluble fraction (log2)” value: -0.185 for the first, -0.0611 for the second.

First: HMISFHEYLTQLLDEKGLTKAQVITDSNIQKNYGYQIFDGSKTPSRDKVIAIALAMQLTLDEANRLLHLSN
Second: HMISFTDLEHIEKMIENVLYTKTPLNLPPTDAKIRKIEHQIARRYGLNSESFGDEPRRFVVVYPNEERE
The “soluble fraction (log2)” value of the first is lower: -1.47 for the first, -0.625 for the second.

“HMISKAQLFSEEELTELYRATGYQLENDPEIHREQFEALQAVRAKIEYAVPDVQEKLEQEQNLGQQ” and “HMISKRFQVDEENSNNRVDIFLANNLDSISRGIVQQLILDGKVLVNGETVKRNHLLKTNDEVDISFEI” are within 0.2 log units of each other in “soluble fraction (log2)” value: 0.295 for the first, 0.298 for the second.

First: HMISRDPYDAGAIKRHFSASGLFSSKELAHYLGKSVSTAKNVLSDLQQQGIVEMVGQGPATKYRFI
Second: HMISSRDAAVIGLVENIQRAQLNAIDESSGFKHLMETYNLESKEIALLVGKSRSYVSNSLRLSK
The “soluble fraction (log2)” value of the first is higher: 0.343 for the first, -0.0196 for the second.

“HMISTVFYVDVKGEVHHPGVYQMKAENRVKDLIEAAGGFTPLADDQKLNLAQLLEDQMVIVVPKKGEEV” and “HMISVTNRTGTGLNDVKVEVFPVGRQMVFSATVFRVESEATNRFSLGELRGSDGTPFNQRVHRPESI” are within 0.2 log units of each other in “soluble fraction (log2)” value: 0.278 for the first, 0.188 for the second.

Compared with “HMITAEQENILFEKASDDISNNIINKGIWTKAYSQAGGDESKQKAIYIDLLVNYYKMLIKAGEEFEDI”, “HMITALLPGTVLIREFDGRDYHVTVATDGRFEMDGHKYPSLSAVAKHITGTQWSGPAFFGLN” is lower in “soluble fraction (log2)” value: -1.39 for the first, -1.75 for the second.

Compared with “HMITASNYFIEVERIGIETLPETLKKGHDLVVKSTSNGTNWANYQTSEGIKKVIDLYFQKLNEYANTV”, “HMITDSSEIEAMVDALVKENPGQAEQYKDGNMKVAGWFIGQIMKVSKGKANPQLVGDLLKKKLG” is higher in “soluble fraction (log2)” value: -0.749 for the first, 0.353 for the second.

Compared with “HMITERVPVPDLTGMPLMEAIKTLNSSKLQYQVVGSVIEGDENRIIDQTPKPDIMVSEKSIVLLYLETYRG”, “HMITIDADTGKRVYTRKEVADLVGASTQSIRLWEDAGAIPASVRDEGGYRYWYEEDLEAIKAYAS” is higher in “soluble fraction (log2)” value: -0.509 for the first, -0.19 for the second.

Going from “HMITKAIELAEEAEKETVWLGVWEHNHPAQKFYQSLGFVKTDEHDFYMGNERHTDYTMTKQLK” to “HMITLKKRRQEAILEIIEKYDLSTQDELLQKLKDSGFDATQATVSRDIKELRLVKTMGANGQYKYAVT”, the “soluble fraction (log2)” value falls from -0.138 to -0.403.

Going from “HMITMADKIDTALSEMAANNEKINVSQVAKRLGISNSAIYKFNPEKIPDIQTAQKRQKHKAEAIAVGTEN” to “HMITMWYYKKDGNIIGPASARKIASMRELGIITDSTPVSRKRNAKNWETFGGLSEKINLESSQWD”, the “soluble fraction (log2)” value falls from 0.215 to -1.9.

“HMITNEDINIKKLLVVMKDTPLSANEIMDKLNIKSKETLRNMYLDPAIKKGLINLTIPDKPTSKNQKYYK” and “HMITNESEIERIVEAIISKNPESIAQYRSGITKVLGFLVGQVMKETKGRANPALVNRIIISKME” are within 0.2 log units of each other in “soluble fraction (log2)” value: -0.0903 for the first, -0.281 for the second.

Compared with “HMITSELALVKLVVKGANRVEALRVAETFRARALDVTLSSFVFELTGKPSKLDAFIGLMRSLGDTEILKR”, “HMIVEIVPSALHGERVDRIVAFILDVSRSVASGLVERGAVHVDGSVETSGKVRLVEGQEVSVDPSQVPG” is higher in “soluble fraction (log2)” value: -4.06 for the first, -0.46 for the second.

First: HMIVNEQEQTFIKAMRDDDFNTILELKMKGYQPSDNVLKSLQPDISSTTFIAAAKIFQMERMLK
Second: HMIVSVPNVRGMGESKAAAALQNRGLLVSIDYESSTSASQGEVIRQSISPGTEVTKGSSITIIIAVSPN
The “soluble fraction (log2)” value of the first is higher: 0.218 for the first, -0.0262 for the second.

“HMIVVMQPGATKEQVQAVIDRVAEFGFQTKLAPGAERMVIGVVGSPLPDTLKEALERLPGVEEVIRVSKR” and “HMIVVTSPQVTDERIAEIVAFIEKHGVQAHVSRGTDRTVIGIIGKADPVLAEHLRSMQGVENVIKIS” are within 0.2 log units of each other in “soluble fraction (log2)” value: -0.0691 for the first, -0.0652 for the second.

Going from “HMIYKLTLLRDLPEAKAGFDFYLRGGLASHDGEEWFSWVTREPIYARLYWLYVEKREEWVLVEETDI” to “HMIYMIDPNDEIAVKLDEIYQRYLNRTIDPEGLIFFYNQIRNAQMGYSDVEKRILESPEYVSIPK”, the “soluble fraction (log2)” value rises from -4.46 to -0.242.

First: HMIYQNVINLLKNRLNSSIYNIGDLLPSEKELAEHYDVSRNTLRKALKTLEEEGMIERRHGSGTYLRNK
Second: HMIYWGTMVDKIYEVLSLAGKPLSLMEIYQQVKVFFPNSTKSSIEASMRLDARHRFKYDVEGHVYSLVD
The “soluble fraction (log2)” value of the first is higher: -0.969 for the first, -1.3 for the second.

First: HMIYYTEEELVKRYIDFSNYLGKKEGASDVDFKKYAVEFGIPSRDHYNRKFITLFNLKIKAGYKPIRH
Second: HMKAAQDQDQAATLLQKATGVNQDQAKLAATVLFKEQSVTPIRQAIASGDYYQAYQDAKSLQQQ
The “soluble fraction (log2)” value of the first is lower: -0.763 for the first, -0.144 for the second.

First: HMKADIEQVQRAFDTLDPKNQQLVLDAMKAATAELDPNSDQFKTNTEFINDNQKALDRHAKAS
Second: HMKAGAVFNEGDVLYPKIGGLKLMAAAGEGGKVVATLAKTDEMIYMGEEQSGFVKVESGSGSGWVKKILVA
The “soluble fraction (log2)” value of the first is lower: 0.125 for the first, 0.366 for the second.

Going from “HMKAGEDAVQKAVLEAVAESAAAVADYKAGSERALNFIVGKVMKKTRGKASAAEVHRLVREEVDR” to “HMKAILHQESRSGFANATVIGGLDKFLDTNWNQLSKYIKKIETPYSDRSLEDRKIWISTILGILSTEI”, the “soluble fraction (log2)” value rises from 0.0904 to 0.45.

Going from “HMKALHEEIAEKIQEQILRSNLAPGDKLDTELELAARYGVSRSTIRQALIQLESAGLIDRLHGRGTFVAD” to “HMKAPDSQYKPLTDFQTDASFQKLDAYLRNRYPAMLANAVVYDVLRTPDAISYRVNYQVDNKMITINAAVT”, the “soluble fraction (log2)” value falls from 0.425 to -0.126.

Compared with “HMKAPLTFVIEGKEYEAFDQYKTGAELKQLAGIPLDTELFLSISKPYQDELIENEKQVNLARPETEYFFVK”, “HMKAQTVPQFVGMTMTEAEEKASELGITLIEGAVVDSVEPKDTILTQDVDEGTEITGKMEIMVTISS” is lower in “soluble fraction (log2)” value: -0.0489 for the first, -0.28 for the second.

Compared with “HMKARLRRVFQIYYGDAYSIMKALKETFPLQTIVHEPRTNSIVVDTPDEETATKIGDVVSAL”, “HMKDANIQIGKRLREARLNMNLEKSEIADVLGVTVEHYRKLEAGVMGISVDKVLTLYHKYGIDPTYLITG” is lower in “soluble fraction (log2)” value: -0.392 for the first, -1.19 for the second.

Going from “HMKDEGSLKVIGQMVVIGIPQSEAKRFANTYTVAQIRAALQYTQKRSEDKNASKLENVAAYFRQALVRNWG” to “HMKDHKSKWMAKTELDSIAKNLSKKHAISLDYEEDGTRFYAGGQSPLGIGRLFTVFVAPRNGHWSDQLR”, the “soluble fraction (log2)” value rises from -1.36 to 0.189.

With “HMKDLIGEAKAKELALGHAKLSASDVTFIHVELDWENGRRVYDVEFYSGAKEYDYEIDAKTGEIVSFDY” the “soluble fraction (log2)” value was -1.27.
